B1: Peroxiredoxin-6 (Rattus norvegicus (Rat)), O35244 (parent)
chain: MPGGLLLGDEAPNFEANTTIGHIRFHDFLGDSWGILFSHPRDFTPVCTTELGRAAKLAPEFAKRNVKLIALSIDSVEDHFAWSKDINAYNGAAPTEKLPFPIIDDKDRDLAILLGMLDPAEKDEKGMPVTARVVFIFGPDKKLKLSILYPATTGRNFDEILRVVDSLQLTASNPVATPVDWKKGESVMVLPTLPEEEAKQLFPKGVFTKELPSGKKYLRYTPQP

Variants of: B1
Details: with 1433e_human YWHAE

| effect of a mutation on the interaction | Variant |
| --- | --- |
| decreasing interaction strength | S32A |

Variants of: B1
Details: with 1433e_mouse Ywhae

| effect of a mutation on the interaction | Variant |
| --- | --- |
| decreasing interaction strength | S32A |

From IntAct's records for PubMed 21346153
